Test results: patent publication EP2344531B1 (Danisco US Inc., dated 2014)
Values belong to the binder of their own block, whether it stands above or below them.

What was measured:
[1] = target: T1, VEGF (vascular endothelial growth factor) (UniProt P15692-4 27-191, limits assumed, biotin label (Example 5)); experiment: BioVeris ECL competition assay with a labeled competitor; legend: +++ = IC50 about 2 - 10 µM
[2] = target: T2, FGF-5 (fibroblast growth factor 5) (UniProt P12034 18-268, limits assumed); experiment: BioVeris ECL competition assay with a labeled competitor; legend: ++ = IC50 about 10 - 50 µM
T2 sequence (looked up): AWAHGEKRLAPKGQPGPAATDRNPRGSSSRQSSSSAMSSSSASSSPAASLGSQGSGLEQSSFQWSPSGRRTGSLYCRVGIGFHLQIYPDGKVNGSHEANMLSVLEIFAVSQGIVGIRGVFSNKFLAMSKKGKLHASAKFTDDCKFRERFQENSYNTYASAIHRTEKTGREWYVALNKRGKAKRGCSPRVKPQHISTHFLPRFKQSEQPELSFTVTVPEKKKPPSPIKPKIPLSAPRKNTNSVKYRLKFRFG

[3] = target: T3, TGFβ1 (transforming growth factor β1) (UniProt P01137 279-390); experiment: BioVeris ECL competition assay with a labeled competitor; negative control
[4] = target: T3, TGFβ1 (transforming growth factor β1); experiment: BioVeris ECL competition assay with a labeled competitor; legend: ++ = IC50 about 10 - 50 µM
[5] = target: T4, TNFα (tumor necrosis factor α) (UniProt P01375 77-233); experiment: as above
[6] = target: T4, TNFα (tumor necrosis factor α); experiment: BioVeris ECL competition assay with a labeled competitor; legend: + = IC50 about 50 - 250 µM
[7] = target: T1, VEGF (vascular endothelial growth …); experiment: BioVeris ECL competition assay with a labeled competitor; legend: ++ = IC50 about 10 - 50 µM
[8] = target: T4, TNFα (tumor necrosis factor α); experiment: BioVeris ECL competition assay with a labeled competitor; negative control

T4 sequence (P01375 77-233 limits assumed): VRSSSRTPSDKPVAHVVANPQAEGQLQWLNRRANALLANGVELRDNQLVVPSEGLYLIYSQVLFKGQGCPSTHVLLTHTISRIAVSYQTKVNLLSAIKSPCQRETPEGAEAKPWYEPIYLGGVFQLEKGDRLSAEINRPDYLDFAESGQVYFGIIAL
T3 sequence (P01137 279-390 limits assumed): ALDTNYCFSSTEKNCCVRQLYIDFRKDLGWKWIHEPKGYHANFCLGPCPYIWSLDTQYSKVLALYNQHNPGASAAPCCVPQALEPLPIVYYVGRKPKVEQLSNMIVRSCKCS
T1 sequence (P15692 other isoform, or with tags, fused parts or gaps limits assumed): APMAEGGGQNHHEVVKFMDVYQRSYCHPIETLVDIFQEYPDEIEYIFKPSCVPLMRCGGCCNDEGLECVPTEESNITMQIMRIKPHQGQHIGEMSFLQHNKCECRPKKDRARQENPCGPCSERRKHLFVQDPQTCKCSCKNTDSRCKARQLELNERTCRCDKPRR

IC50 [1]: 2 to 10 µM
B1: VegKD-Q (BBIt-A13I-S25K-L29P-V52K with the VEGF-binding peptide VegKD KYDLYWW) (designed binder)
chain: DPDDESSKPCCDQCICTKSNPPQCRCKDMRPNSCHSACKSCICKYDLYWWCFCKDITDFCYEPCKPSE

IC50 [2]: 10 to 50 µM
B2: MM007-Q-BBIt-FGF-5 (BBIt-A13I-L29P-F50T-V52A with the FGF-5 binding peptide MM007 RTQPYPL) (designed binder)
chain: DPDDESSKPCCDQCICTKSNPPQCRCSDMRPNSCHSACKSCACRTQPYPLCTCADITDFCYEPCKPSE
notes: also called BBIt-MM007-Q-A13I-L29P-F50T-V52A

IC50 [3]: > 250 µM
IC50 [2]: 10 to 50 µM
B3: FGFps2-Q-BBIt-FGF-5 (BBIt-A13I-L29P-F50T-V52A with the FGF-5 binding peptide FGFps2 TWIDSTP) (designed binder)
chain: DPDDESSKPCCDQCICTKSNPPQCRCSDMRPNSCHSACKSCACTWIDSTPCTCADITDFCYEPCKPSE
notes: also called BBIt-FGFps2-Q-A13I-L29P-F50T-V52A

IC50 [4]: 10 to 50 µM
B4: MM021W-Q-BBIt-TGF (BBIt-A13I-L29P-F50T-V52A with the TGFβ1 binding peptide MM021W KHNVDWL) (designed binder)
chain: DPDDESSKPCCDQCICTKSNPPQCRCSDMRPNSCHSACKSCACKHNVDWLCTCADITDFCYEPCKPSE
notes: also called MM021W-Q-BBIt-TGFβ1; BBIt-MM021W-Q-A13I-L29P-F50T-V52A

IC50 [4]: 10 to 50 µM
B5: PEN3-Q-BBIt-TGF (BBIt-A13I-L29P-F50T-V52A with the TGFβ1 binding peptide PEN3 PENINVLP) (designed binder)
chain: DPDDESSKPCCDQCICTKSNPPQCRCSDMRPNSCHSACKSCACPENINVLPCTCADITDFCYEPCKPSE
notes: also called PEN3-Q-BBIt-TGFβ1; BBIt-PEN3-Q-A13I-L29P-F50T-V52A

B6: BBIt-TNF-T1 (BBIt-TNFα-T1-A13I-S25R-M27A-L29P-S31A-F50K-V52T, peptide RYWQDIP) (designed binder)
chain: DPDDESSKPCCDQCICTKSNPPQCRCRDARPNACHSACKSCACRYWQDIPCKCTDITDFCYEPCKPSE
IC50 [5]: 10 to 50 µM

B7: BBIt-TNF-T3 (BBIt-TNFα-T3-A13I-S25R-M27A-L29P-S31A-F50K-V52T, peptide DMIMVSI) (designed binder)
chain: DPDDESSKPCCDQCICTKSNPPQCRCRDARPNACHSACKSCACDMIMVSICKCTDITDFCYEPCKPSE
notes: the listing entry must be checked
IC50 [6]: 50 to 250 µM

IC50 [7]: 10 to 50 µM
B8: BBIt-AV-V5 (BBIt-VEGF-V5-A13I-S25R-M27A-L29P-S31A-F50K-V52T, peptide KPSSASS) (designed binder)
chain: DPDDESSKPCCDQCICTKSNPPQCRCRDARPNACHSACKSCACKPSSASSCKCTDITDFCYEPCKPSE

B9: BBIt-TNF-T2 (BBIt-TNFα-T2-A13I-S25R-M27A-L29P-S31A-F50K-V52T, peptide APEPILA) (designed binder)
chain: DPDDESSKPCCDQCICTKSNPPQCRCRDARPNACHSACKSCACAPEPILACKCTDITDFCYEPCKPSE
IC50 [6]: 50 to 250 µM

IC50 [1]: 2 to 10 µM
B10: BBIt-AV-V6 (BBIt-VEGF-V6-A13I-S25R-M27A-L29P-S31A-F50K-V52T, peptide PVTKRVH) (designed binder)
chain: DPDDESSKPCCDQCICTKSNPPQCRCRDARPNACHSACKSCACPVTKRVHCKCTDITDFCYEPCKPSE

IC50 [1]: 2 to 10 µM
B11: BBIt-AV-V2 (BBIt-VEGF-V2-A13I-S25R-M27A-L29P-S31A-F50K-V52T, peptide KTNPSGS) (designed binder)
chain: DPDDESSKPCCDQCICTKSNPPQCRCRDARPNACHSACKSCACKTNPSGSCKCTDITDFCYEPCKPSE

IC50 [7]: 10 to 50 µM
B12: BBIt-AV-V1 (BBIt-VEGF-V1-A13I-S25R-M27A-L29P-S31A-F50K-V52T, peptide SKHSQIT) (designed binder)
chain: DPDDESSKPCCDQCICTKSNPPQCRCRDARPNACHSACKSCACSKHSQITCKCTDITDFCYEPCKPSE
IC50 [8]: > 250 µM

IC50 [7]: 10 to 50 µM
B13: BBIt-AV-V3 (BBIt-VEGF-V3-A13I-S25R-M27A-L29P-S31A-F50K-V52T, peptide RPTGHSL) (designed binder)
chain: DPDDESSKPCCDQCICTKSNPPQCRCRDARPNACHSACKSCACRPTGHSLCKCTDITDFCYEPCKPSE

IC50 [1]: 2 to 10 µM
B14: BBIt-AV-V4 (BBIt-VEGF-V4-A13I-S25R-M27A-L29P-S31A-F50K-V52T, peptide KHSAKAE) (designed binder)
chain: DPDDESSKPCCDQCICTKSNPPQCRCRDARPNACHSACKSCACKHSAKAECKCTDITDFCYEPCKPSE
